Experimental data: the RNAGym collection of RNA variant scans (doi:10.7554/elife.80360)

B1: HDV Ribozyme (parent)
chain: GGCCGGCAUGGUCCCAGCCUCCUCGCUGGCGCCGGCUGGGCAACAUUCCGAGGGGACCGUCCCCUCGGUAAUGGCGAAUGGGACCCA

Variants of: B1
Test: self-cleavage, relative activity (ratio to wild type); higher = more cleavage; co-transcriptional
C41A G80C gave a self-cleavage of 0.164.
Variant G40C U69A has a self-cleavage of 0.119.
C41G C49U showed a self-cleavage of 0.608.
C41G C49G gave a self-cleavage of 0.597.
Work on G38U G74U yielded a self-cleavage of 0.14.
Variant G38U G74C has a self-cleavage of 0.115.
For C41G G80U, the self-cleavage was 0.124.
Variant G39U C85U has a self-cleavage of 0.674.
With G39U G81A the self-cleavage was 0.228.
Variant C41U U46A has a self-cleavage of 0.942.
For G40C C85G, the self-cleavage was 0.16.
In the case of C41G C62U, the self-cleavage is reported as 0.815.
C41G C62A showed a self-cleavage of 0.814.
Variant G40A U46C has a self-cleavage of 0.525.
With G39A U60G the self-cleavage was 0.404.
G39U C58U gave a self-cleavage of 0.716.
For C41A G76A, the self-cleavage was 0.845.
Work on C41U G68U yielded a self-cleavage of 0.504.
C41G A87C showed a self-cleavage of 0.65.
G40U G81U showed a self-cleavage of 0.0989.
With C41G C58U the self-cleavage was 0.746.
Work on C41G C58A yielded a self-cleavage of 0.895.
Variant C41A G74U has a self-cleavage of 0.513.
Variant G40C U60A has a self-cleavage of 0.25.
G39U G59A gave a self-cleavage of 0.636.
Variant G39A C63U has a self-cleavage of 0.503.
G38U G76U gave a self-cleavage of 0.237.
With G39C U47C the self-cleavage was 0.166.
Variant G40A G55C has a self-cleavage of 1.01.
In the case of G38U G39U, the self-cleavage is reported as 0.0573.
Work on G39C G76U yielded a self-cleavage of 0.831.
Work on G39C G74A yielded a self-cleavage of 0.36.
In the case of G40C A51C, the self-cleavage is reported as 0.111.
Work on C41G A83G yielded a self-cleavage of 0.759.
For C41G U65C, the self-cleavage was 0.745.
For G40U A78G, the self-cleavage was 0.199.
Work on C41U G55A yielded a self-cleavage of 1.06.
G39C C48A gave a self-cleavage of 0.125.
G40A A87U gave a self-cleavage of 1.02.
G39C G82A showed a self-cleavage of 0.0308.
In the case of G39C G82U, the self-cleavage is reported as 0.0791.
G38U C84A showed a self-cleavage of 0.174.
With C41U G53A the self-cleavage was 1.12.
Variant G40U G59U has a self-cleavage of 0.732.
G39A G54U showed a self-cleavage of 0.517.
With G39A G54C the self-cleavage was 0.369.
Work on G38U G52C yielded a self-cleavage of 0.169.
Variant G38U G52U has a self-cleavage of 0.273.
Variant G39U G40C has a self-cleavage of 0.451.
With G39U G40A the self-cleavage was 0.807.
For C41A G81A, the self-cleavage was 0.242.
G39C C64A gave a self-cleavage of 0.0369.
G40A U72G gave a self-cleavage of 0.437.
Variant C41A G82A has a self-cleavage of 0.223.
With C41A G82C the self-cleavage was 0.289.
With C41A G82U the self-cleavage was 0.348.
With G39C C61G the self-cleavage was 0.196.
For G39C C61U, the self-cleavage was 0.233.
Work on G40A A77G yielded a self-cleavage of 1.05.
Variant C41A C66G has a self-cleavage of 0.91.
With C41A C66A the self-cleavage was 0.804.
With G40C A77G the self-cleavage was 0.271.
Variant G40C A77C has a self-cleavage of 0.151.
For C41G A70U, the self-cleavage was 0.746.
Variant G39A C62A has a self-cleavage of 0.554.
With G39A C62G the self-cleavage was 0.129.
Variant G39C U72A has a self-cleavage of 0.0426.
Work on C41G G73U yielded a self-cleavage of 0.378.
In the case of C41A C62G, the self-cleavage is reported as 0.324.
For G39A U72G, the self-cleavage was 0.102.
C41U A56C showed a self-cleavage of 1.04.
Work on C41A A70C yielded a self-cleavage of 0.527.
In the case of C41A A70G, the self-cleavage is reported as 0.916.
G40A G76U gave a self-cleavage of 0.843.
Variant G40A G76C has a self-cleavage of 0.947.
G40C C62U showed a self-cleavage of 0.324.
With C41U C84G the self-cleavage was 0.589.
C41U A70C gave a self-cleavage of 0.803.
With G38U C85A the self-cleavage was 0.205.
With G40C G68C the self-cleavage was 0.177.
For G40A U69G, the self-cleavage was 0.712.
C41G G81C gave a self-cleavage of 0.138.
Variant C41G G81U has a self-cleavage of 0.166.
In the case of G40U G67A, the self-cleavage is reported as 0.699.
G39A C84G gave a self-cleavage of 0.0852.
For C41A C49G, the self-cleavage was 0.91.
For G40U G53A, the self-cleavage was 0.715.
Work on G40C G80U yielded a self-cleavage of 0.0817.
Work on G40C G80A yielded a self-cleavage of 0.0723.
G39C A70C showed a self-cleavage of 0.175.
Work on C41U C57A yielded a self-cleavage of 0.986.
Variant G40C U65G has a self-cleavage of 0.237.
For C41G G68U, the self-cleavage was 0.596.
In the case of G40A C66A, the self-cleavage is reported as 0.808.
In the case of G38U C61G, the self-cleavage is reported as 0.086.
Work on C41A G67A yielded a self-cleavage of 0.914.
Variant C41A G67U has a self-cleavage of 0.739.
With G40U A70G the self-cleavage was 0.528.
In the case of G39C A51U, the self-cleavage is reported as 0.219.
G40C A45G showed a self-cleavage of 0.32.
In the case of G40C A45U, the self-cleavage is reported as 0.211.
Variant G40A U65A has a self-cleavage of 0.914.
With G40A G59A the self-cleavage was 0.87.
G39U G74A showed a self-cleavage of 0.669.
G39U G74U gave a self-cleavage of 0.382.
For G39U G74C, the self-cleavage was 0.23.
In the case of G39U U69G, the self-cleavage is reported as 0.635.
With C41U C85A the self-cleavage was 0.937.
C41U C85G gave a self-cleavage of 0.911.
With G39A C57G the self-cleavage was 0.591.
G38U C48G gave a self-cleavage of 0.156.
G39U U60A gave a self-cleavage of 0.623.
G39U U60C gave a self-cleavage of 0.772.
G39C G59A gave a self-cleavage of 0.23.
Work on G39C G59C yielded a self-cleavage of 0.162.
Variant G39U G53U has a self-cleavage of 0.587.
G39U G67C showed a self-cleavage of 0.746.
For G39U G67A, the self-cleavage was 0.698.
In the case of G40U C75G, the self-cleavage is reported as 0.166.
Work on G39C C63G yielded a self-cleavage of 0.0437.
Variant G38U A51C has a self-cleavage of 0.246.
With G38U A51G the self-cleavage was 0.32.
G40A G74C gave a self-cleavage of 0.485.
With G40A G74U the self-cleavage was 0.732.
G39A A56U showed a self-cleavage of 0.676.
With G39A A56C the self-cleavage was 0.447.
G39C A45G gave a self-cleavage of 0.0923.
With G39U G55C the self-cleavage was 0.698.
For G40C C49G, the self-cleavage was 0.261.
Variant G39C C86U has a self-cleavage of 0.208.
For G39C C86G, the self-cleavage was 0.259.
G40U A83G gave a self-cleavage of 0.597.
In the case of G40U A83C, the self-cleavage is reported as 0.453.
For C41A C64G, the self-cleavage was 0.884.
G39U G54C gave a self-cleavage of 0.76.
Variant G40C A83U has a self-cleavage of 0.
In the case of G40C G67U, the self-cleavage is reported as 0.323.
Variant C41U C75A has a self-cleavage of 0.0665.
In the case of G39A A70G, the self-cleavage is reported as 0.483.
With G39A G76A the self-cleavage was 0.421.
C41U U47C gave a self-cleavage of 0.799.
In the case of C41U U47G, the self-cleavage is reported as 0.95.
C41G C44U gave a self-cleavage of 0.403.
With G39C A71C the self-cleavage was 0.0978.
G38U C66A gave a self-cleavage of 0.185.
With G38U C41G the self-cleavage was 0.325.
For G39C G52C, the self-cleavage was 0.309.
C41G A51G showed a self-cleavage of 0.499.
With C41G A51U the self-cleavage was 1.18.
G40C C66A showed a self-cleavage of 0.282.
G40C C66G showed a self-cleavage of 0.253.
For G39U A87G, the self-cleavage was 0.661.
G39U A87C gave a self-cleavage of 0.646.
G39U C84A showed a self-cleavage of 0.495.
G39U C84G gave a self-cleavage of 0.348.
G39U A70G gave a self-cleavage of 0.637.
Work on G39U A70C yielded a self-cleavage of 0.536.
In the case of G39A A77G, the self-cleavage is reported as 0.141.
Variant G39C G73U has a self-cleavage of 0.106.
C41U C64G showed a self-cleavage of 0.635.
Work on C41U C64A yielded a self-cleavage of 0.906.
Work on C41U C64U yielded a self-cleavage of 0.892.
G40A A43C showed a self-cleavage of 0.601.
With G38U G68C the self-cleavage was 0.245.
C41A U79A gave a self-cleavage of 0.656.
G40A A45G gave a self-cleavage of 0.815.
For G39A G67U, the self-cleavage was 0.351.
